From the supplement of paper PMC7125110
± gives the standard error. Fewer inactive variants are shown than the library holds.

B1: glmS ribozyme (parent)
chain: AUAAAAGCGCCAGAACUACAGAAAUGUAGUUGACGAGGAGGAGGUUUAUCGAAUUUUCGGCGGAUGCCUCCAAA

Legend:
Settings in all cases: with glucosamine-6-phosphate
[1] = variants of: B1; assay: self-cleavage kobs at 160 uM GlcN6P; higher = faster cleavage; RNA array
Method in brief: (§1)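 Ribozyme variants carrying barcodes were transcribed in situ on sequenced MiSeq chips by E. coli RNA polymerase and tracked at 37 °C with a hybridised Cy3 probe. They were exposed to 40 μM to 10 mM glucosamine-6-phosphate in HEPES/KCl/Mg(OAc)2 buffer. kobs came from exponential decay fits of normalised per-tile medians, and kcat and KM from weighted Michaelis–Menten fits.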

[2] = variants of: B1; assay: self-cleavage kobs at 640 uM GlcN6P; higher = faster cleavage; RNA array
Method in brief: as §1

[3] = variants of: B1; assay: self-cleavage kobs at 2500 uM GlcN6P; higher = faster cleavage; RNA array
Method in brief: as §1

[4] = variants of: B1; assay: self-cleavage kobs at 10000 uM GlcN6P; higher = faster cleavage; RNA array
Method in brief: as §1

Variant | self-cleavage kobs at 160 uM GlcN6P [1] [s⁻¹] | self-cleavage kobs at 640 uM GlcN6P [2] [s⁻¹] | self-cleavage kobs at 2500 uM GlcN6P [3] [s⁻¹] | self-cleavage kobs at 10000 uM GlcN6P [4] [s⁻¹]
A14C U54C U57A G60A C70U | < 1e-05 | < 1e-05 | < 1e-05 | –
A14U U49C U57G C70G | 9.25e-05 ± 2.7e-05 | 6.79e-05 ± 2.7e-05 | 6.68e-05 ± 2.2e-05 | –
C11G A12C A52C G59U G66A C67G | < 1e-05 | < 1e-05 | < 1e-05 | –
A12G G32A C67G C68U | 0.000534 ± 0.00025 | – | – | –
A15U U30G U46G C67G | 5.03e-05 ± 1.7e-05 | 6.26e-05 ± 1.3e-05 | 0.000146 ± 2.2e-05 | –
C16U C58G C68G | 0.000169 ± 4.4e-05 | 0.000132 ± 3.4e-05 | 7.79e-05 ± 1.5e-05 | –
C10U A33C G59A G66U | < 1e-05 | < 1e-05 | – | –
C16G C67G | 0.000347 ± 0.00013 | 9.56e-05 ± 1.7e-05 | 8.7e-05 ± 1.4e-05 | 6.6e-05 ± 7e-06
A12G G32C C71A | < 1e-05 | < 1e-05 | – | –
G13A U46G A48G G59A | < 1e-05 | – | < 1e-05 | < 1e-05
A15C G32C G38U | < 1e-05 | – | – | –
A15C G32C A48C | < 1e-05 | – | – | –
C16U G40A U46C | 0.000137 ± 3.1e-05 | – | 0.000815 ± 0.00018 | –
A14C C16A U31C G35C U55G | < 1e-05 | – | < 1e-05 | < 1e-05
C11A A15G U69G | 0.000139 ± 6.4e-05 | 0.000293 ± 0.0001 | 0.000159 ± 4.9e-05 | –
G13U U47G A52C | < 1e-05 | – | < 1e-05 | –
G13A U45C C50U C71G | < 1e-05 | < 1e-05 | < 1e-05 | –
G29A A39U G43U | < 1e-05 | – | – | –
C16A C34G U49A C50A | < 1e-05 | – | – | –
A15U G38C G43C G51U | < 1e-05 | < 1e-05 | – | < 1e-05
C16U G32U C70A | < 1e-05 | – | – | –
G13A U30A U31A A42C U46G | < 1e-05 | – | < 1e-05 | –
A15U A42U G51A C67U | < 1e-05 | < 1e-05 | – | < 1e-05
C11G G13A G44U U69G | < 1e-05 | – | < 1e-05 | –
G13C G29U G37C C71U | < 1e-05 | – | – | –
C11A A33U G66A | < 1e-05 | < 1e-05 | < 1e-05 | –
G29A G35C | < 1e-05 | < 1e-05 | < 1e-05 | < 1e-05
A12G G13C G29A C50G | 0.00168 ± 0.00066 | – | 4.52e-05 ± 1.8e-05 | –

Variant | self-cleavage kobs at 160 uM GlcN6P [1] [s⁻¹] | self-cleavage kobs at 640 uM GlcN6P [2] [s⁻¹] | self-cleavage kobs at 2500 uM GlcN6P [3] [s⁻¹] | self-cleavage kobs at 10000 uM GlcN6P [4] [s⁻¹]
A15G A33C A64U | < 1e-05 | – | < 1e-05 | –
C11A U46G | < 1e-05 | < 1e-05 | – | 4.72e-05 ± 2.1e-05
A15U G32U G37A G62U | < 1e-05 | – | – | –
C11A G38A U45A | < 1e-05 | – | – | –
G13U G35C G51C U54A C70U | < 1e-05 | – | < 1e-05 | –
A15C G40A U45A C70G | < 1e-05 | < 1e-05 | – | –
C16G A42G G60C C70U | < 1e-05 | – | < 1e-05 | –
A12U A15G G41A | 0.000272 ± 4.5e-05 | 0.00098 ± 0.00018 | – | –
C10G U46A U55C | < 1e-05 | – | < 1e-05 | –
A15G C16A | 0.000119 ± 4.3e-05 | 0.000305 ± 7.7e-05 | 0.000524 ± 0.00013 | –
A12G G40U G62A | < 1e-05 | – | – | –
A23C A52G U69A | 6.42e-05 ± 2.4e-05 | 9.59e-05 ± 2.5e-05 | – | –
C16U C50U U69G | 7.48e-05 ± 1.8e-05 | 7.53e-05 ± 1.8e-05 | 7.21e-05 ± 1.6e-05 | –
C10G U45C U49A U54G C70G | < 1e-05 | < 1e-05 | – | –
C11G U31C C71U | < 1e-05 | – | < 1e-05 | –
G13A G41U G43C | < 1e-05 | < 1e-05 | – | –
A12G C58U G59A | < 1e-05 | – | – | –
A12G A14C A48U | < 1e-05 | < 1e-05 | < 1e-05 | –
G13U G37C U45C C68U | < 1e-05 | – | < 1e-05 | –
C10U U65G | < 1e-05 | – | – | –
C11G A33C G35C G62A | < 1e-05 | < 1e-05 | – | –
G13A G41C C67U | < 1e-05 | < 1e-05 | < 1e-05 | –
A12U A15C A42G | 0.00123 ± 0.0005 | 0.00381 ± 0.0017 | 0.0282 ± 0.014 | –
C10U C11G A39C | < 1e-05 | < 1e-05 | – | –
C10U A53C | < 1e-05 | < 1e-05 | – | –
C16U C34G | < 1e-05 | – | – | < 1e-05
G29A A53U C67A | 7.84e-05 ± 1.8e-05 | 0.00017 ± 4e-05 | 0.000241 ± 7.1e-05 | –
